From the supplement of paper PMC11316812
± gives the standard deviation of the averaged measurements.

Assays:
MCF7 = assay: percentage of EdU-negative (G0-arrested) nuclei per well, 72 h; higher = more G0 arrest; conditions: reference: sequence is the full UniProt precursor, the tested protein was the secreted form or ectodomain
hTERT-HMEC = assay: as above; conditions: reference: sequence is the full UniProt precursor, the tested protein was the secreted form or ectodomain
[1] = protein concentration 0.01422 µM
[2] = protein concentration 0.1422 µM
[3] = protein concentration 0.03125 µM
[4] = protein concentration 0.3125 µM
[5] = protein concentration 0.01425 µM
[6] = protein concentration 0.1425 µM
[7] = protein concentration 0.0225 µM
[8] = protein concentration 0.0257143 µM
[9] = protein concentration 0.257143 µM
[10] = protein concentration 0.0153175 µM
[11] = protein concentration 0.153175 µM
[12] = protein concentration 0.0055 µM
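Note: secreted proteins added to cultured cells, EdU pulse at the end, nuclei found by Hoechst imaging, EdU status from nuclear versus surrounding ring intensity ratio, PBS as neutral control.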

## MGAPACALALCVAVAIVAGASSESLGTEQRVVGRAAEVPGPEPGQQEQLVFGSGDAVELSCPPPGGGPMGPTVWVKDGTGLVPSERVLVGPQRLQVLNASHEDSGAYSCRQRLTQRVLCHFSVRVTDAPSSGDDEDGEDEAEDTGVDTGAPYWTRPERMDKKLLAVPAANTVRFRCPAAGNPTPSISWLKNGREFRGEHRIGGIKLRHQQWSLVMESVVPSDRGNYTCVVENKFGSIRQTYTLDVLERSPHRPILQAGLPANQTAVLGSDVEFHCKVYSDAQPHIQWLKHVEVNGSKVGPDGTPYVTVLKTAGANTTDKELEVLSLHNVTFEDAGEYTCLAGNSIGFSHHSAWLVVLPAEEELVEADEAGSVYAGILSYGVGFFLFILVVAAVTLCRLRSPPKKGLGSPTVHKISRFPLKRQVSLESNASMSSNTPLVRIARLSSGEGPTLANVSELELPADPKWELSRARLTLGKPLGEGCFGQVVMAEAIGIDKDRAAKPVTVAVKMLKDDATDKDLSDLVSEMEMMKMIGKHKNIINLLGACTQGGPLYVLVEYAAKGNLREFLRARRPPGLDYSFDTCKPPEEQLTFKDLVSCAYQVARGMEYLASQKCIHRDLAARNVLVTEDNVMKIADFGLARDVHNLDYYKKTTNGRLPVKWMAPEALFDRVYTHQSDVWSFGVLLWEIFTLGGSPYPGIPVEELFKLLKEGHRMDKPANCTHDLYMIMRECWHAAPSQRPTFKQLVEDLDRVLTVTSTDEYLDLSAPFEQYSPGGQDTPSSSSSGDDSVFAHDLLPPAPPSSGGSRT
MCF7; [1]
  percentage of EdU-negative: 27.1 ± 3.1%
MCF7; [2]
  percentage of EdU-negative: 25.5 ± 3.1%
hTERT-HMEC; [1]
  percentage of EdU-negative: 5.58 ± 0.063%
hTERT-HMEC; [2]
  percentage of EdU-negative: 5.64 ± 0.3%

## MRIWWLLLAIEICTGNINSQDTCRQGHPGIPGNPGHNGLPGRDGRDGAKGDKGDAGEPGRPGSPGKDGTSGEKGERGADGKVEAKGIKGDQGSRGSPGKHGPKGLAGPMGEKGLRGETGPQGQKGNKGDVGPTGPEGPRGNIGPLGPTGLPGPMGPIGKPGPKGEAGPTGPQGEPGVRGIRGWKGDRGEKGKIGETLVLPKSAFTVGLTVLSKFPSSDMPIKFDKILYNEFNHYDTAAGKFTCHIAGVYYFTYHITVFSRNVQVSLVKNGVKILHTKDAYMSSEDQASGGIVLQLKLGDEVWLQVTGGERFNGLFADEDDDTTFTGFLLFSSP [P0C862]
MCF7; [3]
  percentage of EdU-negative: 28.2 ± 0.72%
MCF7; [4]
  percentage of EdU-negative: 30.09 ± 0.089%
hTERT-HMEC; [3]
  percentage of EdU-negative: 5.3 ± 0.76%
hTERT-HMEC; [4]
  percentage of EdU-negative: 7.183 ± 0.018%

## MGLQTTKWPSHGAFFLKSWLIISLGLYSQVSKLLACPSVCRCDRNFVYCNERSLTSVPLGIPEGVTVLYLHNNQINNAGFPAELHNVQSVHTVYLYGNQLDEFPMNLPKNVRVLHLQENNIQTISRAALAQLLKLEELHLDDNSISTVGVEDGAFREAISLKLLFLSKNHLSSVPVGLPVDLQELRVDENRIAVISDMAFQNLTSLERLIVDGNLLTNKGIAEGTFSHLTKLKEFSIVRNSLSHPPPDLPGTHLIRLYLQDNQINHIPLTAFSNLRKLERLDISNNQLRMLTQGVFDNLSNLKQLTARNNPWFCDCSIKWVTEWLKYIPSSLNVRGFMCQGPEQVRGMAVRELNMNLLSCPTTTPGLPLFTPAPSTASPTTQPPTLSIPNPSRSYTPPTPTTSKLPTIPDWDGRERVTPPISERIQLSIHFVNDTSIQVSWLSLFTVMAYKLTWVKMGHSLVGGIVQERIVSGEKQHLSLVNLEPRSTYRICLVPLDAFNYRAVEDTICSEATTHASYLNNGSNTASSHEQTTSHSMGSPFLLAGLIGGAVIFVLVVLLSVFCWHMHKKGRYTSQKWKYNRGRRKDDYCEAGTKKDNSILEMTETSFQIVSLNNDQLLKGDFRLQPIYTPNGGINYTDCHIPNNMRYCNSSVPDLEHCHT
MCF7; [5]
  percentage of EdU-negative: 22.9 ± 1.9%
MCF7; [6]
  percentage of EdU-negative: 27 ± 0.45%
hTERT-HMEC; [5]
  percentage of EdU-negative: 6.49 ± 1.2%
hTERT-HMEC; [6]
  percentage of EdU-negative: 7.12 ± 0.37%

## MAAALFVLLGFALLGTHGASGAAGFVQAPLSQQRWVGGSVELHCEAVGSPVPEIQWWFEGQGPNDTCSQLWDGARLDRVHIHATYHQHAASTISIDTLVEEDTGTYECRASNDPDRNHLTRAPRVKWVRAQAVVLVLEPGTVFTTVEDLGSKILLTCSLNDSATEVTGHRWLKGGVVLKEDALPGQKTEFKVDSDDQWGEYSCVFLPEPMGTANIQLHGPPRVKAVKSSEHINEGETAMLVCKSESVPPVTDWAWYKITDSEDKALMNGSESRFFVSSSQGRSELHIENLNMEADPGQYRCNGTSSKGSDQAIITLRVRSHLAALWPFLGIVAEVLVLVTIIFIYEKRRKPEDVLDDDDAGSAPLKSSGQHQNDKGKNVRQRNSS
MCF7; [7]
  percentage of EdU-negative: 22.7 ± 2.4%
MCF7; protein concentration 0.225 µM
  percentage of EdU-negative: 25.2 ± 1.3%
hTERT-HMEC; [7]
  percentage of EdU-negative: 5.59 ± 0.91%
hTERT-HMEC; protein concentration 0.225 µM
  percentage of EdU-negative: 5.94 ± 1.8%

## MKPWILLLVMFISGVVMLLPVLGSFWNKDPFLDMIRETEQCWVQPPYKYCEKRCTKIMTCVRPNHTCCWTYCGNICLDNEEPLKSMLNP [Q8NEX5]
MCF7; [8]
  percentage of EdU-negative: 26 ± 0.26%
MCF7; [9]
  percentage of EdU-negative: 26.31 ± 0.064%
hTERT-HMEC; [8]
  percentage of EdU-negative: 5.54 ± 0.81%
hTERT-HMEC; [9]
  percentage of EdU-negative: 5.1 ± 0.81%

## MSPNFKLQCHFILIFLTALRGESRYLELREAADYDPFLLFSANLKRELAGEQPYRRALRCLDMLSLQGQFTFTADRPQLHCAAFFISEPEEFITIHYDQVSIDCQGGDFLKVFDGWILKGEKFPSSQDHPLPSAERYIDFCESGLSRRSIRSSQNVAMIFFRVHEPGNGFTLTIKTDPNLFPCNVISQTPNGKFTLVVPHQHRNCSFSIIYPVVIKISDLTLGHVNGLQLKKSSAGCEGIGDFVELLGGTGLDPSKMTPLADLCYPFHGPAQMKVGCDNTVVRMVSSGKHVNRVTFEYRQLEPYELENPNGNSIGEFCLSGL
MCF7; [10]
  percentage of EdU-negative: 25.7 ± 1.4%
MCF7; [11]
  percentage of EdU-negative: 28.3 ± 0.6%
hTERT-HMEC; [10]
  percentage of EdU-negative: 5.2 ± 0.25%
hTERT-HMEC; [11]
  percentage of EdU-negative: 6.58 ± 0.22%

## MPAFNRLFPLASLVLIYWVSVCFPVCVEVPSETEAVQGNPMKLRCISCMKREEVEATTVVEWFYRPEGGKDFLIYEYRNGHQEVESPFQGRLQWNGSKDLQDVSITVLNVTLNDSGLYTCNVSREFEFEAHRPFVKTTRLIPLRVTEEAGEDFTSVVSEIMMYILLVFLTLWLLIEMIYCYRKVSKAEEAAQENASDYLAIPSENKENSAVPVEE [Q9NY72]
MCF7; [3]
  percentage of EdU-negative: 25.4 ± 0.68%
MCF7; [4]
  percentage of EdU-negative: 25.4 ± 1.8%
hTERT-HMEC; [3]
  percentage of EdU-negative: 4.7 ± 0.6%
hTERT-HMEC; [4]
  percentage of EdU-negative: 4.76 ± 0.95%

## MWGLKVLLLPVVSFALYPEEILDTHWELWKKTHRKQYNNKVDEISRRLIWEKNLKYISIHNLEASLGVHTYELAMNHLGDMTSEEVVQKMTGLKVPLSHSRSNDTLYIPEWEGRAPDSVDYRKKGYVTPVKNQGQCGSCWAFSSVGALEGQLKKKTGKLLNLSPQNLVDCVSENDGCGGGYMTNAFQYVQKNRGIDSEDAYPYVGQEESCMYNPTGKAAKCRGYREIPEGNEKALKRAVARVGPVSVAIDASLTSFQFYSKGVYYDESCNSDNLNHAVLAVGYGIQKGNKHWIIKNSWGENWGNKGYILMARNKNNACGIANLASFPKM
MCF7; [12]
  percentage of EdU-negative: 25.3 ± 2.9%
MCF7; protein concentration 0.055 µM
  percentage of EdU-negative: 27.4 ± 1.2%
hTERT-HMEC; [12]
  percentage of EdU-negative: 4.75 ± 0.94%
hTERT-HMEC; protein concentration 0.055 µM
  percentage of EdU-negative: 4.78 ± 0.37%

## MESSRVRLLPLLGAALLLMLPLLGTRAQEDAELQPRALDIYSAVDDASHEKELIEALQEVLKKLKSKRVPIYEKKYGQVPMCDAGEQCAVRKGARIGKLCDCPRGTSCNSFLLKCL
MCF7; [7]
  percentage of EdU-negative: 28.1 ± 1.3%
MCF7; protein concentration 0.225 µM
  percentage of EdU-negative: 24.6 ± 0.93%
hTERT-HMEC; [7]
  percentage of EdU-negative: 5.12 ± 0.53%
hTERT-HMEC; protein concentration 0.225 µM
  percentage of EdU-negative: 5.36 ± 0.64%

## MALRRSMGRPGLPPLPLPPPPRLGLLLAALASLLLPESAAAGLKLMGAPVKLTVSQGQPVKLNCSVEGMEEPDIQWVKDGAVVQNLDQLYIPVSEQHWIGFLSLKSVERSDAGRYWCQVEDGGETEISQPVWLTVEGVPFFTVEPKDLAVPPNAPFQLSCEAVGPPEPVTIVWWRGTTKIGGPAPSPSVLNVTGVTQSTMFSCEAHNLKGLASSRTATVHLQALPAAPFNITVTKLSSSNASVAWMPGADGRALLQSCTVQVTQAPGGWEVLAVVVPVPPFTCLLRDLVPATNYSLRVRCANALGPSPYADWVPFQTKGLAPASAPQNLHAIRTDSGLILEWEEVIPEAPLEGPLGPYKLSWVQDNGTQDELTVEGTRANLTGWDPQKDLIVRVCVSNAVGCGPWSQPLVVSSHDRAGQQGPPHSRTSWVPVVLGVLTALVTAAALALILLRKRRKETRFGQAFDSVMARGEPAVHFRAARSFNRERPERIEATLDSLGISDELKEKLEDVLIPEQQFTLGRMLGKGEFGSVREAQLKQEDGSFVKVAVKMLKADIIASSDIEEFLREAACMKEFDHPHVAKLVGVSLRSRAKGRLPIPMVILPFMKHGDLHAFLLASRIGENPFNLPLQTLIRFMVDIACGMEYLSSRNFIHRDLAARNCMLAEDMTVCVADFGLSRKIYSGDYYRQGCASKLPVKWLALESLADNLYTVQSDVWAFGVTMWEIMTRGQTPYAGIENAEIYNYLIGGNRLKQPPECMEDVYDLMYQCWSADPKQRPSFTCLRMELENILGQLSVLSASQDPLYINIERAEEPTAGGSLELPGRDQPYSGAGDGSGMGAVGGTPSDCRYILTPGGLAEQPGQAEHQPESPLNETQRLLLLQQGLLPHSSC
MCF7; [8]
  percentage of EdU-negative: 25.83 ± 0.093%
MCF7; [9]
  percentage of EdU-negative: 27.3 ± 1.4%
hTERT-HMEC; [8]
  percentage of EdU-negative: 3.99 ± 0.11%
hTERT-HMEC; [9]
  percentage of EdU-negative: 5.87 ± 0.091%
